From US20090215686A1 (published 2009) come the findings set out here.

Data set [1] deals with the molecule itself. Put plainly: crystal structure of mouse NK1. Here is the method: Data were collected with a MAR 225 CCD detector at 5-ID (DND-CAT) of the Advance Photon Source (APS) located at Argonne National Laboratory. Crystals were flash frozen in liquid nitrogen after a quick wash in cryoprotectant solution containing 50 mM ammonium sulfate, 29% PEG 4000 or 1000 (w/w) (human or mouse NK1 respectively), 100 mM Tris-HCl pH 8.0, 0.5 or 0 mM βOG, 100 mM NaCl, and 15% ethylene glycol. Data was integrated and scaled with HKL2000 (Otwinowski and Minor, 1997). The human NK1 crystallized in space group P21, a=49.40 Å, b=51.81 Å, c=73.17 Å, and β=107.87°, and the mouse NK1 in P63 with a=b=86.49 Å, c=104.45 Å. The structure was solved by molecular replacement using the PDB coordinates 1NK1. Molecular replacement and model refinement were performed with CNS, where twin fraction was incorporated for the refinement for the mouse structure (Brunger et al., 1998). Manual model building was done with the program 0 (Jones et al., 1991).
To investigate the molecular mechanism by which NK1 induces Met dimerization, the crystal structure of mouse NK1 at a 2.4 Å resolution and a high resolution structure of human NK1 (1.8 Å) were determined for structural comparison.

In data set [2] the target is T1, Met extracellular domain fragment (residues 25-567, sema domain and cysteine-rich domain) with C-terminal … (UniProt P08581 25-307; P08581 308-567). Put plainly: cell-based or functional assay.
In data set [3] the target is T1, Met extracellular domain fragment …. The experiment in a line: AlphaScreen competition of unlabeled ligand against biotin-NK1 binding to 6his-Met, 1 uM heparin. Here is the method: (§1) The binding of NK1 to Met was determined by AlphaScreen assays using a hexahistidine detection kit from Perkin-Elmer. The experiment was performed using 10 nM biotin-NK1 and 6his-Met in the presence of 5 μg/ml donor and acceptor beads in a buffer containing 50 mM MOPS, pH7.4, 50 mM NaF, 0.05 mM CHAPS, and 0.1 mg/ml bovine serum albumin. Competition experiments were performed with 0.01 to 2.5 μM untagged ligand in the presence of 1 μM heparin and IC₅₀ values for NK1-Met interaction were determined from a nonlinear least square fit of the data. All experiments were duplicated or triplicated with standard errors typically less than 10% of the measurements. The Met dimerization assays were prepared using 40 nM of 6his-Met in the presence of 5 μg/ml nickel chelate donor and acceptor beads (Perkin-Elmer). The effect of Met ligands and heparin on Met dimerization was determined using 1 μM untagged ligand and 1 μM heparin.
To determine the binding affinities of the various NK1s for Met, competition experiments were performed using unlabeled NK1 proteins (FIG. 1E). […] These quantitative measurements thus establish that the affinities of the NK1 fragments are 10-50 folds weaker than the full-length HGF.
(In general: In Alpha technology, singlet oxygen from a donor bead excites a nearby acceptor bead.)

The target is the same in data set [4]. The experiment in a line: AlphaScreen competition against biotin-NK1 binding to 6his-Met, 1 uM heparin. The procedure:
as §1
(§2) In contrast to the Met dimerization activity, the Met binding activity of these NK1 mutants was little affected.

Data set [5] shares this target. Put plainly: SPR, MET567 amine-coupled to a CM5 chip, ligand in flow. From the text:
(§3) Briefly, a CM5 chip was coated with MET567 by amine coupling chemistry. Ligand was then flowed through the cell at various concentrations to allow calculation of the dissociation equilibrium (KD).
(§4) NK1 versions of the above mutants were expressed in the yeast P. pastoris and purified to homogeneity.

For data set [6] the target is unchanged. Put plainly: SPR, MET567 amine-coupled to a CM5 chip, against wild type NK1.
Description: as §3, §4
(Surface plasmon resonance follows binding to a sensor surface in real time, without labels.)

Data set [7] shares this target. The experiment in a line: AlphaScreen competition: unlabeled NK1 mutant against biotinylated NK1 binding to 6his-Met, with heparin [b]. The procedure: as §1, §2

Broadly, the IC50 is the midpoint of a concentration-inhibition curve. What is called Kd is the free concentration of one partner at which half of the binding sites on the other are occupied at equilibrium, for simple one-to-one binding.

B1: mouse NK1 (ligand)
chain: YAEGQKKRRNTLHEFKKSAKTTLTKEDPLLKIKTKKVNSADECANRCIRNRGFTFTCKAFVFDKSRKRCYWYPFNSMSSGVKKGFGHEFDLYENKDYIRNCIIGKGGSYKGTVSITKSGIKCQPWNSMIPHEHSFLPSSYRGKDLQENYCRNPRGEEGGPWCFTSNPEVRYEVCDIPQCSEV
notes: also called mouse NK1 (E. coli)
Regarding B1, the binding result in data set [1] is “binds”. In data set [2], the “Met dimerization signal (AlphaScreen), 1 µM NK1 without heparin; fold label over the bar [b]” value was found to be 1 fold; the “Met dimerization signal (AlphaScreen, 6his-Met on donor and acceptor beads), 1 µM NK1 with heparin; fold label over the bar [b]” value worked out at 46 fold. For the same molecule, in data set [3], the IC50 is roughly 30 nM.

B2: human HGF NK1 (residues 28-209), expressed in E. coli (ligand)
chain: YAEGQRKRRNTIHEFKKSAKTTLIKIDPALKIKTKKVNTADQCANRCTRNKGLPFTCKAFVFDKARKQCLWFPFNSMSSGVKKEFGHEFDLYENKDYIRNCIIGKGRSYKGTVSITKSGIKCQPWSSMIPHEHSFLPSSYRGKDLQENYCRNPRGEEGGPWCFTSNPEVRYEVCDIPQCSEV
notes: Expressed as a 6xHis-thioredoxin fusion; also called human NK1; wild type NK1
For B2, in data set [2], the “Met dimerization signal (AlphaScreen), 1 µM NK1 without heparin; fold label over the bar [b]” value stood at 1 fold; the “Met dimerization signal (AlphaScreen, 6his-Met on donor and acceptor beads), 1 µM NK1 with heparin; fold label over the bar [b]” value worked out at 84 fold. This molecule also registered an IC50 in data set [4] of 49 nM. For the same molecule, in data set [3], the IC50 was roughly 100 nM; the “fold weaker affinity than mouse NK1 and the human R134G mutant” value was 3 fold.

B3: wild type NK1 expressed in P. pastoris (Example 7) (ligand)
chain: YAEGQRKRRNTIHEFKKSAKTTLIKIDPALKIKTKKVNTADQCANRCTRNKGLPFTCKAFVFDKARKQCLWFPFNSMSSGVKKEFGHEFDLYENKDYIRNCIIGKGRSYKGTVSITKSGIKCQPWSSMIPHEHSFLPSSYRGKDLQENYCRNPRGEEGGPWCFTSNPEVRYEVCDIPQCSEV
notes: Lietha 2001
Turning to B3, binding in data set [5] was put at a Kd of 183 nM.

B4: human NK1 mutant Y124A in the R134G background (ligand)
chain: YAEGQRKRRNTIHEFKKSAKTTLIKIDPALKIKTKKVNTADQCANRCTRNKGLPFTCKAFVFDKARKQCLWFPFNSMSSGVKKEFGHEFDLYENKDAIRNCIIGKGGSYKGTVSITKSGIKCQPWSSMIPHEHSFLPSSYRGKDLQENYCRNPRGEEGGPWCFTSNPEVRYEVCDIPQCSEV
notes: also called Y124A NK1; Y124A mutant
In turn, B4 yielded an IC50 in data set [4] of 39 nM.

B5: NK1 double mutant LG (D123A:N127A), P. pastoris (ligand)
chain: YAEGQRKRRNTIHEFKKSAKTTLIKIDPALKIKTKKVNTADQCANRCTRNKGLPFTCKAFVFDKARKQCLWFPFNSMSSGVKKEFGHEFDLYENKAYIRACIIGKGRSYKGTVSITKSGIKCQPWSSMIPHEHSFLPSSYRGKDLQENYCRNPRGEEGGPWCFTSNPEVRYEVCDIPQCSEV
For B5, the “fold reduced MET binding affinity” value in data set [6] is greater than 100 fold.

B6: NK1 K1 mutant K1D (V140A:I142A), P. pastoris (ligand)
chain: YAEGQRKRRNTIHEFKKSAKTTLIKIDPALKIKTKKVNTADQCANRCTRNKGLPFTCKAFVFDKARKQCLWFPFNSMSSGVKKEFGHEFDLYENKDYIRNCIIGKGRSYKGTASATKSGIKCQPWSSMIPHEHSFLPSSYRGKDLQENYCRNPRGEEGGPWCFTSNPEVRYEVCDIPQCSEV
Consider B6, for which the Kd in data set [5] was determined as 160 nM.

B7: NK1 linker mutant LC (Y124A), P. pastoris (ligand)
chain: YAEGQRKRRNTIHEFKKSAKTTLIKIDPALKIKTKKVNTADQCANRCTRNKGLPFTCKAFVFDKARKQCLWFPFNSMSSGVKKEFGHEFDLYENKDAIRNCIIGKGRSYKGTVSITKSGIKCQPWSSMIPHEHSFLPSSYRGKDLQENYCRNPRGEEGGPWCFTSNPEVRYEVCDIPQCSEV
Take B7: the Kd in data set [5] turned out to be 149 nM. The Kd values of the last two molecules are within 1.5-fold of each other.

B8: NK1 double mutant LF (D123A:Y124A), P. pastoris (ligand)
chain: YAEGQRKRRNTIHEFKKSAKTTLIKIDPALKIKTKKVNTADQCANRCTRNKGLPFTCKAFVFDKARKQCLWFPFNSMSSGVKKEFGHEFDLYENKAAIRNCIIGKGRSYKGTVSITKSGIKCQPWSSMIPHEHSFLPSSYRGKDLQENYCRNPRGEEGGPWCFTSNPEVRYEVCDIPQCSEV
Consider B8, for which the “fold reduced MET binding affinity” value in data set [6] was greater than 100 fold.

B9: human NK1 mutant R134G (ligand)
chain: YAEGQRKRRNTIHEFKKSAKTTLIKIDPALKIKTKKVNTADQCANRCTRNKGLPFTCKAFVFDKARKQCLWFPFNSMSSGVKKEFGHEFDLYENKDYIRNCIIGKGGSYKGTVSITKSGIKCQPWSSMIPHEHSFLPSSYRGKDLQENYCRNPRGEEGGPWCFTSNPEVRYEVCDIPQCSEV
notes: Positions count on wild type NK1; also called human R134G mutant; human R134G NK1
With B9, in data set [2], the “Met dimerization signal (AlphaScreen), 1 µM NK1 without heparin; fold label over the bar [b]” value was found to be 1 fold; the “Met dimerization signal (AlphaScreen, 6his-Met on donor and acceptor beads), 1 µM NK1 with heparin; fold label over the bar [b]” value amounted to 68 fold. In data set [3], this molecule returned an IC50 of roughly 30 nM.

B10: human NK1 mutant K85A/D123A in the R134G background (ligand)
chain: YAEGQRKRRNTIHEFKKSAKTTLIKIDPALKIKTKKVNTADQCANRCTRNKGLPFTCAAFVFDKARKQCLWFPFNSMSSGVKKEFGHEFDLYENKAYIRNCIIGKGGSYKGTVSITKSGIKCQPWSSMIPHEHSFLPSSYRGKDLQENYCRNPRGEEGGPWCFTSNPEVRYEVCDIPQCSEV
notes: made in the R134G background
Regarding B10, the IC50 in data set [7] came to 75 nM.

B11: human NK1 mutant K85A in the R134G background (ligand)
chain: YAEGQRKRRNTIHEFKKSAKTTLIKIDPALKIKTKKVNTADQCANRCTRNKGLPFTCAAFVFDKARKQCLWFPFNSMSSGVKKEFGHEFDLYENKDYIRNCIIGKGGSYKGTVSITKSGIKCQPWSSMIPHEHSFLPSSYRGKDLQENYCRNPRGEEGGPWCFTSNPEVRYEVCDIPQCSEV
notes: also called K85A NK1
For the molecule B11, the IC50 in data set [4] came out at 32 nM.

B12: human NK1 mutant K85A/N127A in the R134G background (ligand)
chain: YAEGQRKRRNTIHEFKKSAKTTLIKIDPALKIKTKKVNTADQCANRCTRNKGLPFTCAAFVFDKARKQCLWFPFNSMSSGVKKEFGHEFDLYENKDYIRACIIGKGGSYKGTVSITKSGIKCQPWSSMIPHEHSFLPSSYRGKDLQENYCRNPRGEEGGPWCFTSNPEVRYEVCDIPQCSEV
notes: made in the R134G background
Consider B12, for which, in data set [7], the IC50 is 97 nM.

B13: NK1 linker mutant LE (N127A), P. pastoris (ligand)
chain: YAEGQRKRRNTIHEFKKSAKTTLIKIDPALKIKTKKVNTADQCANRCTRNKGLPFTCKAFVFDKARKQCLWFPFNSMSSGVKKEFGHEFDLYENKDYIRACIIGKGRSYKGTVSITKSGIKCQPWSSMIPHEHSFLPSSYRGKDLQENYCRNPRGEEGGPWCFTSNPEVRYEVCDIPQCSEV
In data set [5], B13 showed a Kd of 83 nM.
